Results on 14 molecules are retold here after US20240360183A1 (SHANGHAI PUYOU BIOMEDICAL, published 2024).

One experiment concerns the target BSA (UniProt P02769 25-607). The experiment is described as follows: cell-based or functional assay.
A further experiment concerns the target oxidized HSA protein (UniProt P02768 25-609, oxidized with 8 mM NaClO in the dark for 30 min (which residues are oxidized is not stated)). The experiment is described as follows: cell-based or functional assay.

BSA, sequence (P02769 25-607 limits assumed): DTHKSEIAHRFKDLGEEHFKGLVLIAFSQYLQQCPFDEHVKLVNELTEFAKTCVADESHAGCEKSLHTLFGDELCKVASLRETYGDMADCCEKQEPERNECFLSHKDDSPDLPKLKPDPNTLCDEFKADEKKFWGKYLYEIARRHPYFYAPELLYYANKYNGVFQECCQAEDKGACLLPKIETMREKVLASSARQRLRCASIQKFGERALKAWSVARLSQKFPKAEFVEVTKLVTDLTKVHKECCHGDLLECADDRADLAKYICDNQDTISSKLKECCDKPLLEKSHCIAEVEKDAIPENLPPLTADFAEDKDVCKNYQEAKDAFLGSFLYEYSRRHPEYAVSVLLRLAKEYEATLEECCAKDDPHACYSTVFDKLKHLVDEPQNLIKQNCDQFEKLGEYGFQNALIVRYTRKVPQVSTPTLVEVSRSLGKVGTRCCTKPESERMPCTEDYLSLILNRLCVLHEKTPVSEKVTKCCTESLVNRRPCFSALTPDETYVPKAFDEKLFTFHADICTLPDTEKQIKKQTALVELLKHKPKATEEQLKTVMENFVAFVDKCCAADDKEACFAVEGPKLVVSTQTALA
oxidized HSA protein, sequence (P02768 25-609): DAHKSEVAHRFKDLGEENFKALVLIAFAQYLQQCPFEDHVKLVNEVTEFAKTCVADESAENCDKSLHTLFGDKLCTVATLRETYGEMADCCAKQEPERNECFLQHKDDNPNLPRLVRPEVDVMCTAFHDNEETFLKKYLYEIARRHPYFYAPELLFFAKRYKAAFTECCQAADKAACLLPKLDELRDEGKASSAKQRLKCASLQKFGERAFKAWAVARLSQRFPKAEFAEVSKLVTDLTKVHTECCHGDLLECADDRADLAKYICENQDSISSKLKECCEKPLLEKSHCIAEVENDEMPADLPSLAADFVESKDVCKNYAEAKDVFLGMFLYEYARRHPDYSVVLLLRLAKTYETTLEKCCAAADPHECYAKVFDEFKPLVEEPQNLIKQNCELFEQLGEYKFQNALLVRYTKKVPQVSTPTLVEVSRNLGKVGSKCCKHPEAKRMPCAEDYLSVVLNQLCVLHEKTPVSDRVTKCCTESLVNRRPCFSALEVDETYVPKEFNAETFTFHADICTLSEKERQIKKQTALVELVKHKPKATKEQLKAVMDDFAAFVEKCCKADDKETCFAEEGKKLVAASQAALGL

B1: CF-11 (SEQ ID NO: 31) (peptide)
chain: SEKKQPVDLGLLEEDDEFEEFPAEDWAGLDEDEDAHVWEDNWDDDNVEDDFSNQLRATVLLMILVVETPYGVYVLHQKGRMVSAFLVV
With B1, the “IC50 (µM) for inhibiting thermal aggregation of BSA” value in the experiment with BSA is approximately 7 µM.

B2: CF-39 (SEQ ID NO: 52) (peptide)
chain: SEKKQPVDLGLLEEDDEFEEFPAEDWAGLDEDESAHVWEDNWDDDNVTSDFSNQLRATVLLMILVCETPYGCYVLHQKGRMCSAFLCC
For the molecule B2, the “IC50 (µM) for inhibiting thermal aggregation of BSA” value in the experiment with BSA was determined as 10.5 µM. In addition, the “IC50 (µM) for cellular ROS level induced by DAMP” value (“IC50 (µM) … by DAMP” below) in the experiment with oxidized HSA protein is 3.91 µM.

B3: CF-22 (SEQ ID NO: 36) (peptide)
chain: SEKKQPVDLGLLEEDDEFEEFPAEDWAGLDEDEDAHVWEDNWDDDNVEDDFSNQLRATVLLMILVVETPYGAYVLHQKGRMASAFLVV
As for B3, the “IC50 (µM) for inhibiting thermal aggregation of BSA” value with BSA was 16.9 µM.

B4: CF-38 (SEQ ID NO: 51) (peptide)
chain: STKKQPVDLGLLEEDDEFEEFPAESWAGLDEDESAHVWEDNWDDDNVTSDFSNQLRATVLLMILVCETPYGCYVLHQKGRMCSAFLCC
B4: the “IC50 (µM) for inhibiting thermal aggregation of BSA” value in the experiment with BSA came to 13.8 µM. Besides, the “IC50 (µM) … by DAMP” value with oxidized HSA protein was determined as 4.12 µM.

B5: CF-40 (SEQ ID NO: 53) (peptide)
chain: SEKKQPVDLGLLEEDDEFEEFPAEDWAGLDEDEDAHVWEDNWDDDNVTSDFSNQLRATVLLMILVCETPYGCYVLHQKGRMCSAFLCC
On to B5, for which, in the experiment with BSA, the “IC50 (µM) for inhibiting thermal aggregation of BSA” value amounted to 12 µM. Also, the “IC50 (µM) … by DAMP” value with oxidized HSA protein worked out at 5.87 µM.

B6: CF-10 (SEQ ID NO: 30) (peptide)
chain: SEKKQPVDLGLLEEDDEFEEFPAEDWAGLDEDEDAHVWEDNWDDDNVEDDFSNQLRATVLLMILVCETPYGCYVLHQKGRMCSAFLCA
For the molecule B6, the “IC50 (µM) for inhibiting thermal aggregation of BSA” value with BSA is 13.8 µM.

B7: CF-25 (SEQ ID NO: 39) (peptide)
chain: SEKKQPVDLGLLEEDDEFEEFPAEDWAGLDEDEDAHVWEDNWDDDNVEDDFSNQLRATVLLMILVVETPYGVYVLHQKGRMASAFLAV
Turning to B7, the “IC50 (µM) for inhibiting thermal aggregation of BSA” value with BSA was determined as 21.5 µM.

B8: CF-24 (SEQ ID NO: 38) (peptide)
chain: SEKKQPVDLGLLEEDDEFEEFPAEDWAGLDEDEDAHVWEDNWDDDNVEDDFSNQLRATVLLMILVVETPYGAYVLHQKGRMVSAFLVA
Turning to B8, the “IC50 (µM) for inhibiting thermal aggregation of BSA” value with BSA was 17.6 µM.

B9: CF-04 (SEQ ID NO: 29) (peptide)
chain: SEKKQPVDLGLLEEDDEFEEFPAEDWAGLDEDEDAHVWEDNWDDDNVEDDFSNQLRATVLLMILVAETPYGAYVLHQKGRMASAFLAA
For B9, in the experiment with BSA, the “IC50 (µM) for inhibiting thermal aggregation of BSA” value is approximately 10.2 µM.

B10: CF-31 (SEQ ID NO: 48) (peptide)
chain: SQWAPLDHLESDEWGAFEDEDFNNGDVEELDPEERDDEDLFQKDVLVAKADDEEWDNTVLLMILVCETPYGCYVLHQKGRMCSAFLCC
With B10, the “IC50 (µM) for inhibiting thermal aggregation of BSA” value with BSA amounted to 12.8 µM.

B11: CF-30 (SEQ ID NO: 47) (peptide)
chain: SDADEFDDDNSVWGWEDDEVEPNDAFQPLGDVRANEELDEKDHKLDEEADLQWEFELTVLLMILVCETPYGCYVLHQKGRMCSAFLCC
Consider B11, for which, in the experiment with BSA, the “IC50 (µM) for inhibiting thermal aggregation of BSA” value amounted to 21.3 µM.

B12: CF-29 (SEQ ID NO: 46) (peptide)
chain: SELDFWDNWKDRQADLPAASDDEDFENDLAEVDHEDPLVDGNEWDGDEVEFELEEQKTVLLMILVCETPYGCYVLHQKGRMCSAFLCC
On to B12, for which, in the experiment with BSA, the “IC50 (µM) for inhibiting thermal aggregation of BSA” value stood at 13.8 µM.

B13: CF-43 (SEQ ID NO: 54) (peptide)
chain: SEKKQPVDLGLLEEDDEFEEFPAEDWAGLDEDEDAHVWEDNWDDDNVTSDFSNQLRATVLLMILVCETPYGCYVLHQKGRMCS
As to B13, in the experiment with BSA, the “IC50 (µM) for inhibiting thermal aggregation of BSA” value was 6.77 µM. The “IC50 (µM) … by DAMP” value with oxidized HSA protein turned out to be 6.13 µM.

B14: CF-28 (SEQ ID NO: 45) (peptide)
chain: SEFEDANKEQGEVPNDDVSDELPKLLDDDEDELRGALFFQWHDWEEAEDNDWDVEDATVLLMILVCETPYGCYVLHQKGRMCSAFLCC
With B14, the “IC50 (µM) for inhibiting thermal aggregation of BSA” value in the experiment with BSA is 7.48 µM.
